Test results from PMC11849937, “Atractylenolide I inhibits angiogenesis and reverses sunitinib resistance in clear cell renal cell carcinoma through ATP6V0D2-mediated autophagic degradation of EPAS1/HIF2α” (Autophagy, 2024).

Target: T1, His-VPS41 (recombinant, bacterial) (UniProt P49754 1-854)
T1 construct: VPS41; The only His-VPS41 plasmid that the methods name is in the vector pGMLV; source: BL21 (Rosetta) bacterial cells, purified (His beads)
T1 sequence (looked up): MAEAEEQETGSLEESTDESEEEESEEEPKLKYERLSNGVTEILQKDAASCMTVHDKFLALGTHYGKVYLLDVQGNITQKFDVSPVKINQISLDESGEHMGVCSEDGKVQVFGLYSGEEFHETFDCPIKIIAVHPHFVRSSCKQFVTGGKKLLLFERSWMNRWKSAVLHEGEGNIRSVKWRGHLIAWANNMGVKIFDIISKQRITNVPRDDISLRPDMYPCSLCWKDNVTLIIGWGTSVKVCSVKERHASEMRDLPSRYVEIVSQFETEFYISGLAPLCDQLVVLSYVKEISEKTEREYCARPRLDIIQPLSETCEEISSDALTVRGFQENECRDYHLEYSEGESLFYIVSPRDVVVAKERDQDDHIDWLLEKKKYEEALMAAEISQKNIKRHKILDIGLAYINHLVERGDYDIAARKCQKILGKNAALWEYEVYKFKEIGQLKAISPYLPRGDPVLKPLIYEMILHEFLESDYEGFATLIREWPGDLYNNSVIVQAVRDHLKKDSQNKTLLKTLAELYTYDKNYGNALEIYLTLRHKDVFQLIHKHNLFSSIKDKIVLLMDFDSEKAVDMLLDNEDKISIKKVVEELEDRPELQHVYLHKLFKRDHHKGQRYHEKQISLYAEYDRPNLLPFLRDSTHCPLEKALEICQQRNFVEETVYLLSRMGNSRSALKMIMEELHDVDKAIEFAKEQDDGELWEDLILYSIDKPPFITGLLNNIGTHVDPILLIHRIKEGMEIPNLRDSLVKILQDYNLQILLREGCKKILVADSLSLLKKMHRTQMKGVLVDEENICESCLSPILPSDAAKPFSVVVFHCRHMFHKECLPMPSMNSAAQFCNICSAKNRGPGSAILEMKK
Assay: pull-down; GST-tagged protein (2.5 ug) immobilised on glutathione-Sepharose beads, incubated with His-RAB7, His-VPS41 or both in affinity-isolation buffer with PMSF; western blot
Conditions: both partners purified

binding result: binds
B1: GST-tagged ATP6V0D2 (natural protein)
chain: not shown
notes: ATP6V0D2, ATPase H+ transporting V0 subunit d2; Construct bought from Tsingke Biotechnology; also called GST-ATP6V0D2; source: BL21 (Rosetta) bacterial cells, purified (glutathione-Sepharose beads)
